The values that follow come from PMC3638396 (Philosophical Transactions of the Royal Society B: …, 2013).

Series [1] deals with the molecule itself. Description: quartz crystal microbalance; sonicated Ure2p fibril seeds attached to the gold sensor by Traut's reagent; 1 μM soluble Ure2p introduced, measured without flow; Tris buffer pH 8.4; elongation of the surface-bound seeds.
Series [2] addresses T1, WT Ssa1p (yeast (S. cerevisiae), UniProt P10591 1-642).
T1 construct: Ssa1p, yeast HSP70 family member, residues 1-642 (NBD, SBD, CTD); also called wild-type Ssa1p; full-length Ssa1p; source: plasmid pPROEX-HTb-Ssa1
Description: co-sedimentation; called 'pull-down assay' / 'filament pull-down assay': 10 μM Ure2p fibril seeds with 20 μM WT or ΔA Ssa1p, Tris buffer pH 8.4, 30°C, 2 h; centrifuged through 40 per cent sucrose at 61 000 rpm, 30 min, 4°C; washed pellets on SDS-PAGE. The conditions noted are these: both partners purified.

T1 sequence (P10591 whole entry, the tested form may be a part): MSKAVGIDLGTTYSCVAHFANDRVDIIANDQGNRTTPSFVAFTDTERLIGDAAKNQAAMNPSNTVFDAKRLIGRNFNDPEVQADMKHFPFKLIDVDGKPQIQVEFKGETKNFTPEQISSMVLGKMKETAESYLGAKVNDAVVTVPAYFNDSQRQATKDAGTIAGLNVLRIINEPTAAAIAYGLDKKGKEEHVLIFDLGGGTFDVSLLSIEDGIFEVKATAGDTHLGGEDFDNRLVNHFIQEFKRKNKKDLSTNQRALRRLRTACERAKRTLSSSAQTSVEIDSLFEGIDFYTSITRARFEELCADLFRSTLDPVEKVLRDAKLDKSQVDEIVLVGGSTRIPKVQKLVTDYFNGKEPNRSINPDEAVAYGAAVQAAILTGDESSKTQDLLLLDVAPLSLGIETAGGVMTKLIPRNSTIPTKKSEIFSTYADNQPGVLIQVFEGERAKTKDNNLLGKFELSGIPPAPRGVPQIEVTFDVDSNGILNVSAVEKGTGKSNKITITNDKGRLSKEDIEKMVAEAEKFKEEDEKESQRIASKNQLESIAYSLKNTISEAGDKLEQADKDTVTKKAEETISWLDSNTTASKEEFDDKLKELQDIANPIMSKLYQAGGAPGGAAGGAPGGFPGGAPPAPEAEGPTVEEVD

B1: Ure2p (natural protein, Saccharomyces cerevisiae, UniProt P23202 1-354, looked up)
chain: MMNNNGNQVSNLSNALRQVNIGNRNSNTTTDQSNINFEFSTGVNNNNNNNSSSNNNNVQNNNSGRNGSQNNDNENNIKNTLEQHRQQQQAFSDMSHVEYSRITKFFQEQPLEGYTLFSHRSAPNGFKVAIVLSELGFHYNTIFLDFNLGEHRAPEFVSVNPNARVPALIDHGMDNLSIWESGAILLHLVNKYYKETGNPLLWSDDLADQSQINAWLFFQTSGHAPMIGQALHFRYFHSQKIASAVERYTDEVRRVYGVVEMALAERREALVMELDTENAAAYSAGTTPMSQSRFFDYPVWLVGDKLTIADLAFVPWNNVVDRIGINIKIEFPEVYKWTKHMMRRPAVIKALRGE
notes: Ure2p, the protein determinant of the Saccharomyces cerevisiae prion state [URE3]; a 354-residue protein; One construct used in two states: native soluble protein (DLS, solution phase of QCM) and sonicated fibril seeds (co-sedimentation, QCM sensor; seeds treated with Traut's reagent for the sensor); The state is told in each assay's format; also called native Ure2p; soluble Ure2p; source: …
For the molecule B1, the binding result in series [1] and in series [2] was “binds” throughout.
